Source: patent US20080213277A1 (Amgen, published 2008)
Bridge positions count the residues as written; N and C are the ends. Ends that are not written are not given here.

B1: murine anti-human hepcidin monoclonal antibody 2.7 (antibody, V domains shown)
VH: QIQLVQSGPELKKPGETVKISCKASGYTFTTYGMSWVKQAPGKGLKWMGWINTYSGVPTYADDFKGRFAFSLETSASTAYLQINNLKNEDTATYFCGRDHYYGEVAYWGQGTLVTVSA
VL: DIVLTQSPASLAVSLGQRATISCRASESVDSYGNSFMHWYQQKPGQPPKLLIYRASNLESGIPARFSGSGSRTDFTLTINPVEADDVATYYCHQSNEEYTFGGGTKLEIK
notes: Mouse hybridoma monoclonal; Murine IgG1 was used as its isotypic control; also called Ab2.7; Ab 2.7
B2: human hepcidin (SEQ ID NO: 9), mature, correctly folded (peptide)
peptide: DTHFPICIFCCGCCHRSKCGMCCKT
modifications: disulfide 10-13, 11-19, 14-22, 7-23; not fully specified
notes: 25-residue mature peptide with four disulfides (C7-C23, C10-C13, C11-C19, C14-C22); Recombinant (E. coli or CHO) or synthetic, by assay; also called rhHepc; shHepc

Experiments:
[1] = biological target: B2; test: BIAcore: 1 nM antibody over immobilized rhHepc surface, no competitor (reference)
Experimental: (§1) Recombinant hepcidin was immobilized on a CM5 chip according to manufacturer's instructions at a flow rate 10 μL/min of running buffer (DPBS: Dulbecco's Phosphate Buffer Saline1X, GIBCO 14190, with 0.005% BIAcore surfactant P-20). The carboxylated matrix of the sensor chip was first activated with a 100 μL injection of 1:1 mixture of EDC (75 mg/mL N-ethyl-N-(dimethylamine-propyl)carbodiimide in water, from Biacore) and NHS (11.5 mg/mL N-hydroxysuccinimide in water, from Biacore). […] The excess reactive groups of the sensor chip were deactivated with an injection of 100 μL of ethanolamine (1.0M, from Biacore).
(§2) The binding signal obtained was proportional to the concentration of free antibody in solution at equilibrium.

[2] = biological target: T1, recombinant cyno hepcidin (SEQ ID NO: 6) (cynomolgus monkey); test: KinExA solution equilibrium: fixed antibody + varied rcyno hepcidin, free antibody captured on rcyno hepcidin-coated beads
T1 construct: also called rcyno hepcidin; rcynoHepc
T1 peptide: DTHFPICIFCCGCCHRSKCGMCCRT
Description: Reacti-Gel 6× beads (Pierce, Rockford, Ill.) were pre-coated with rcyno hepcidin (SEQ ID NO: 6) and blocked with BSA according to manufacturer's instructions. […] The amount of the bead-bound antibody was quantified by fluorescently (Cy5)-labeled goat anti-murine-IgG (H+L) antibody (Jackson Immuno Research, West Grove, Pa.). The binding signal is proportional to the concentration of free antibody at equilibrium. Dissociation equilibrium constant (KD) was obtained from nonlinear regression of the competition curves using a dual-curve one-site homogeneous binding model (KinExA™ Pro software).

[3] = biological target: B2; test: BIAcore solution equilibrium: fixed antibody incubated with varied hepcidin, free antibody read on immobilized hepcidin chip
Experimental: (§3) Preparation of BIAcore chip surfaces: Immobilization of proteins to a BIAcore was performed according to manufacturer's instructions at a flow rate 10 μL/min of running buffer (DPBS: Dulbecco's Phosphate Buffer Saline1X, GIBCO 14190, with 0.005% Biacore surfactant P-20). The carboxylated matrix of the sensor chip was first activated with a 100 μL injection of 1:1 mixture of EDC (75 mg/mL N-ethyl-N-(dimethylamine-propyl)carbodiimide in water, from BIAcore) and NHS (11.5 mg/mL N-hydroxysuccinimide in water, from Biacore). […] The excess reactive groups of the sensor chip were deactivated with an injection of 100 μL of ethanolamine (1.0M, from Biacore).
(§4) Equilibrium binding analysis of antibody/hepcidin interactions on immobilized hepcidin surface: Fixed concentrations of antibody were incubated with various concentrations of hepcidin at room temperature for several hours before run through the immobilized hepcidin surface. After each sample injection, the surfaces were regenerated by injecting 30 μL […] glycine, pH1.5. The binding signal obtained is proportional to the free antibody in solution at equilibrium. The equilibrium dissociation constant (KD) was calculated from nonlinear regression analysis of the competition curves using a one or dual-curve one-site homogeneous binding model (KinExA™ software, Sapidyne Instruments Inc., Boise Id.).

[4] = biological target: T2, recombinant mouse hepcidin (SEQ ID NO: 80) (mouse, not fully specified); test: as above
T2 construct: also called murine hepcidin
T2 peptide: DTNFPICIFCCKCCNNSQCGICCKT
Experimental: as §3, §4

[5] = biological target: T3, recombinant human prohepcidin (SEQ ID NO: 102) (human); test: sandwich immunoassay: Ab2.7 capture, biotinylated rabbit anti-prohepcidin polyclonal detection; the prohepcidin concentration is varied (buffer curves)
T3 chain: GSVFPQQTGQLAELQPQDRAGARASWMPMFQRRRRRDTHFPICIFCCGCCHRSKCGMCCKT
Experimental: In order to reliably assess prohepcidin concentrations, a prohepcidin standard was measured after incubation for 60 minutes at 25° C. in a range of different buffers or sera.

[6] = biological target: B2; test: BIAcore: 1 nM antibody preincubated with 10 nM of this hepcidin form in solution, then run over immobilized rhHepc surface; % = free antibody still binding the surface (low % = strong binding to the solution form)
Experimental: as §1, §2

[7] = biological target: T4, hepcidin 20 (SEQ ID NO: 96) (human); test: as above
T4 construct: also called Hepc20; hepc20
T4 peptide: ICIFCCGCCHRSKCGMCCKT
Experimental: as §1, §2

[8] = biological target: T1, recombinant cyno hepcidin (SEQ ID NO: 6); test: BIAcore solution equilibrium: fixed rcynoHepc + varied antibody, free rcynoHepc read on immobilized antibody surface
Experimental: The immobilization was performed at a flow rate 10 uL/min of running buffer (DPBS: Dulbecco's Phosphate Buffer Saline1, GIBCO 14190, with 0.005% BIAcore surfactant P-20) according to manufacturer's instructions. The carboxylated matrix of the sensor chip was first activated with a 100 ul injection of 1:1 mixture of EDC (75 mg/mL N-ethyl-N-(dimethylamine-propyl)carbodiimide in water, from BIAcore) and NHS (11.5 mg/mL N-hydroxysuccinimide in water, from BIAcore). 180 ul of antibodies (˜20 ug/ml in 10 mM Na-acetate pH4.0) was injected to immobilize onto the sensor chip at 30 uL/min. The excess reactive groups of the sensor chip were deactivated with an injection of 100 uL of ethanolamine (1.0M, from BIAcore).
The binding signal obtained is proportional to the free rcynoHepc in solution at equilibrium. The equilibrium dissociation constant (KD) was calculated from nonlinear regression analysis of the competition curves using a one-curve one-site homogeneous binding model (KinEx™ software, Sapidyne Instruments Inc., Boise Id.).

[9] = biological target: T4, hepcidin 20 (SEQ ID NO: 96); test: BIAcore solution competition: 1 nM antibody preincubated with 10 nM antigen, then immobilized hepcidin surface; '-' = no inhibition by the solution form
Experimental: as §1, §2

[10] = biological target: B1; test: competitive binding assay: unlabeled human hepcidin against 0.25 nM biotinylated hepcidin for Ab2.7; standards in rabbit serum
Experimental: (§5) Hepcidin levels were determined using hepcidin standards of varying concentrations (from 1.4-300 ng/ml) spiked into buffer (5% BSA:I-block), rabbit serum, or pooled human serum. […] 25 μl/well of mixed solution was added to Black half area plates coated with 1-2 μg/mL G×M capture antibody. 25 μL/well of biotinylated hepcidin was added at 0.25 nM. The plate was covered with plate film sealer and incubated at room temperature (25° C.) on a plate shaker at around ≦200 RPM for around 60 minutes. The plate was washed and then 50 μL/well of Poly horseradish peroxidase amplification reagent at 1:2000 was added. The plate was allowed to sit for 30 minutes and was then washed with a plate washer using PBS or KPL buffer 6 times. The plate was patted dry and a luminescent substrate (Femto or Pico) was quickly added. The plate was read with luminometer (ex: Lmax 340) for 1 second using Femto or Pico Substrate. […] (FIG. 30).

[11] = biological target: B1; test: competitive binding assay: unlabeled human hepcidin against 0.25 nM biotinylated hepcidin for Ab2.7; standards in 5% BSA:I-block buffer
Experimental: as §5

Row | Binder | Binding to Hepcidin Surface (%) [1] | Kd [2] | Kd [3] | Kd [4] | EC50 (read off the curve) [5] | Binding to Hepcidin Surface (%) [6] | Binding to Hepcidin Surface (%) [7] | Kd [8] | binding result [9] | IC50 (read off the curve) [10] | IC50 (read off the curve) [11]
1 | B1 | 100% | ~0.016 nM | 0.11 nM | 40 nM | ~10 ng/mL | 2% | 3% |  |  |  | 
2 | murine anti-human hepcidin monoclonal antibody Ab43 (antibody, V domains shown, Mouse hybridoma monoclonal; also called mAB 43) VH: QIQLVQSGPELKKPGETVKISCKASGYTFTTYGMSWVKQAPGKGLKWMGWINTYSGVPTYADDFKGRFAFSLETSASTAYLQINNLKNEDTATYFCASLWYYGRAFDYWGQGTTLTVSS VL: NIVLTQSPASLAVSLGQRATISCRASESVDSYGNSFMHWYQQKPGQPPKLLIYLASNLESGVPARFSGSGSRTDFTLTIDPVEADDAATYYCQQNNEDRTFGGGTKLEIK | 100% |  | 0.56 nM | 14 nM |  | 11% | 100% | ~0.1 nM | no binding (tested: 10 nM) |  | 
3 | murine anti-human hepcidin monoclonal antibody 2.41 (antibody, V domains shown, Mouse hybridoma monoclonal) VH: QIQLVQSGPELKKPGETVKISCKASGYTFTTYGMSWVKQAPGKGLKWMGWINTSSGVPTYADDFMGRFAFSLETSASTAYLQINNLKNEDTATYFCARDRYYGEVAYWGQGTLVTVSA VL: DIVLTQSPASLAVSLGQRATISCRASESVDSFGNSFMHWYQLKPGQPPKLLIYRASNLESGIPARFSGSGSRTDFTLTINPVEADDVAIYYCQQSNEEYTFGGGTKLEIK | 100% | ~0.009 nM | 0.05 nM | 30 nM |  | 0% | 1% |  |  |  | 
4 | B2 |  |  |  |  |  |  |  |  |  | ~7 ng/mL | ~7 ng/mL
5 | rat anti-human hepcidin monoclonal antibody R9 (antibody, V domains shown, Rat hybridoma monoclonal; also called mAb R9) VH: QVTLKESGPGILQPSQTLSLTCSFSGFSLSTSGICVSWIRQPSGKGLEWLATICWEDSKGYNPSLKNRLTISKDTSNNQAFLKITSVDTADTAIYYCARPLNYGGYSELELDYWGQGVMVTVSS VL: DIQMTQSPSLLSASVGDRVTLSCKASQNIYKYLNWYQQKLGEAPKLLIYYTNSLQTGIPSRFSGSGSGTDFTLTISSLQPEDVATYYCYQYNSGPTFGAGTKLELK | 100% |  | 21 nM | 20 nM |  | 79% | 88% | ~10 nM |  |  | 
